{
  "source": "patent US20260234234A1",
  "about": "(QILU PUGET SOUND BIOTHERAPEUTICS, published 2026)",
  "key": {"[1]": {"target": "Avitag_c-MYC_His6_hTSLP (wild type) QB11630 (human)", "test": "cell-based or functional assay"}, "[2]": {"target": "T1, Avitag_FLAG_His6_cyTSLP QB11632 (wild type) (cynomolgus monkey)", "T1 chain": "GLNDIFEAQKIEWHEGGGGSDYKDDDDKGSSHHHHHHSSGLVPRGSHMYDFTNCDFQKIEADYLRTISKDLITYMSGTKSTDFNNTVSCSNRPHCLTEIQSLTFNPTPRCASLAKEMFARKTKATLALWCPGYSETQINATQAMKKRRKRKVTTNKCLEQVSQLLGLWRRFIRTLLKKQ", "test": "cell-based or functional assay"}, "[3]": {"target": "T2, Avitag_c-MYC_His6_hTSLP QB11631 with mutations of R127A + R130S (human)", "test": "cell-based or functional assay"}, "[4]": {"target": "Avitag_c-MYC_His6_hTSLP (wild type) QB11630 (human)", "test": "cell-based or functional assay", "remark": "listed apart in the source"}, "[5]": {"target": "T3, native hTSLP derived from human Small Airway Epithelial Cells (healthy donor 1 and donor 2) (human, UniProt Q969D9 29-159, limits assumed)", "test": "cell-based or functional assay"}, "[6]": {"target": "T2, Avitag_c-MYC_His6_hTSLP QB11631 with …", "test": "cell-based or functional assay", "remark": "listed apart in the source"}, "[7]": {"target": "hTSLP, R&D Systems 1398-TS-010 (E. coli) (human, UniProt Q969D9 29-159, limits assumed)", "test": "SPR, captured antibody, monomeric TSLP analyte, 25 C, 1:1 Langmuir fit"}, "[8]": {"target": "T2, Avitag_c-MYC_His6_hTSLP QB11631 with …", "test": "SPR, captured antibody, monomeric TSLP analyte, 25 C, 1:1 Langmuir fit"}, "[9]": {"target": "T4, Avitag_c-MYC_His6_hTSLP (wild type) QB11630 (human)", "T4 construct": "N-terminal tags are part of the entry; also called in-house hTSLP native antigen QB11630", "test": "SPR, captured antibody, monomeric TSLP analyte, 25 C, 1:1 Langmuir fit"}, "[10]": {"target": "T5, hTSLP, ACRO Biosystems TSP-H52Hb (HEK293) (human, UniProt Q969D9 29-159, limits assumed)", "T5 construct": "also called Acro-WT", "test": "SPR, captured antibody, monomeric TSLP analyte, 25 C, 1:1 Langmuir fit"}, "[11]": {"target": "T2, Avitag_c-MYC_His6_hTSLP QB11631 with …", "test": "cell-based or functional assay", "remark": "listed apart in the source"}, "[12]": {"target": "T2, Avitag_c-MYC_His6_hTSLP QB11631 with …", "test": "cell-based or functional assay", "remark": "listed apart in the source"}, "[13]": {"target": "T4, Avitag_c-MYC_His6_hTSLP (wild type) …", "test": "cell-based or functional assay", "remark": "listed apart in the source"}, "[14]": {"target": "T6, Avitag_FLAG_His6_cyTSLP QB11633 with mutations of R127A + R130S (cynomolgus monkey)", "T6 construct": "Substitutions and tags already in the entry; also called cyTSLP (R127A+R130S)", "T6 chain": "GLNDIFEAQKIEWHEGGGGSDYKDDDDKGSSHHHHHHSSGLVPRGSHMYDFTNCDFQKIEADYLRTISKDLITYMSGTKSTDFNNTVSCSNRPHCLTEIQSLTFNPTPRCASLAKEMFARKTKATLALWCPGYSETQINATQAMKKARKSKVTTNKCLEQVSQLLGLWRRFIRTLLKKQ", "test": "SPR, captured antibody, monomeric TSLP analyte, 25 C, 1:1 Langmuir fit"}, "[15]": {"target": "T1, Avitag_FLAG_His6_cyTSLP QB11632 (wild …)", "test": "SPR, captured antibody, monomeric TSLP analyte, 25 C, 1:1 Langmuir fit"}, "[16]": {"target": "T7, cyTSLP, ACRO Biosystems TSP-C52H8 (HEK293) (cynomolgus monkey, UniProt A0A7N9CAT7 29-159)", "T7 construct": "also called Acro WT", "test": "SPR, captured antibody, monomeric TSLP analyte, 25 C, 1:1 Langmuir fit"}, "[17]": {"target": "T8, cyTSLP (R127A, R130S), ACRO Biosystems TSP-C52H4 (HEK293) (cynomolgus monkey, UniProt A0A7N9CAT7 29-159)", "T8 construct": "also called Acro-RA-RS", "test": "SPR, captured antibody, monomeric TSLP analyte, 25 C, 1:1 Langmuir fit"}, "[18]": {"target": "T9, cyTSLP (R127A, R130S), Sino Biological 90911-C08H-100 (HEK293) (cynomolgus monkey, UniProt A0A7N9CAT7 29-159)", "T9 construct": "also called Sino-RA-RS", "test": "SPR, captured antibody, monomeric TSLP analyte, 25 C, 1:1 Langmuir fit"}, "[19]": {"target": "T3, native hTSLP derived from human Small …", "test": "cell-based or functional assay", "remark": "listed apart in the source"}, "[20]": {"target": "T1, Avitag_FLAG_His6_cyTSLP QB11632 (wild …)", "test": "cell-based or functional assay"}, "[21]": {"target": "T1, Avitag_FLAG_His6_cyTSLP QB11632 (wild …)", "test": "cell-based or functional assay"}, "[22]": {"target": "T1, Avitag_FLAG_His6_cyTSLP QB11632 (wild …)", "test": "cell-based or functional assay"}, "[23]": {"target": "T4, Avitag_c-MYC_His6_hTSLP (wild type) …", "test": "cell-based or functional assay", "remark": "listed apart in the source"}, "[24]": {"target": "T6, Avitag_FLAG_His6_cyTSLP QB11633 with …", "test": "cell-based or functional assay"}, "[25]": {"target": "T4, Avitag_c-MYC_His6_hTSLP (wild type) …", "test": "cell-based or functional assay", "remark": "listed apart in the source"}, "[26]": {"target": "T2, Avitag_c-MYC_His6_hTSLP QB11631 with …", "test": "cell-based or functional assay", "remark": "listed apart in the source"}},
  "data": [
    {"binder": "anti-hTSLP IgG1-D265A antibody QB11718 (antibody, V domains shown, QB11237 altered for MabPair production; alterations are in the entries; also called lead anti-hTSLP antibody QB11718) VH: QVQLVQSGPEVKKPGSSVKVSCKASGYIFTDYAMHWVRQRPGQDLEWMGTFIPLLDTSDYNQNFKGRATITADKSTSTAYMELSSLRSEDTAVYYCARMGVTHSYVMDAWGQGTLVTVSS VL: EIVLTQSPGTLSLSPGERATLSCRASQHISRSVHWYQQKPGEAPRLLIYFASQSISGIPDRFSGSGSGTDFTLTISRLESEDFAVYYCQQSYSFPYTFGRGTKVEIKR", "values": [
      {"measurement": "IC50, inhibition of TSLP-induced pSTAT5 (AlphaLISA, MFI) in BaF3 cells expressing hTSLPR/hIL-7Rα; stimulus hTSLP QB11630", "setting": "[1]", "result": 1.7, "unit": "nM"},
      {"measurement": "IC50, inhibition of TSLP-induced proliferation of BaF3 cells expressing hTSLPR/hIL-7Rα (CellTiter-Glo, RLU); stimulus cyTSLP QB11632", "setting": "[2]", "result": 0.012, "unit": "nM"},
      {"measurement": "IC50, inhibition of hTSLP-induced IL-5 secretion from human ILC2s", "setting": "[3]", "result": 0.35, "unit": "nM"},
      {"measurement": "IC50, inhibition of hTSLP-induced IL-5 secretion from human ILC2s", "setting": "[4]", "result": 0.1, "unit": "nM"},
      {"measurement": "IC50, inhibition of TSLP-induced proliferation of BaF3 cells expressing hTSLPR/hIL-7Rα (CellTiter-Glo, RLU); stimulus native hTSLP from healthy donor 2", "setting": "[5]", "result": 0.0018, "unit": "nM"},
      {"measurement": "IC50, inhibition of TSLP-induced pSTAT5 (AlphaLISA, MFI) in cultured primary human ILC2 cells; stimulus hTSLP QB11631", "setting": "[6]", "result": 3.1, "unit": "nM"},
      {"measurement": "Kd", "setting": "[7]", "result": 0.00502, "unit": "nM"},
      {"measurement": "Kd", "setting": "[8]", "result": 0.0163, "unit": "nM"},
      {"measurement": "Kd", "setting": "[9]", "result": 0.0778, "unit": "nM"},
      {"measurement": "Kd", "setting": "[10]", "result": 0.0118, "unit": "nM"},
      {"measurement": "IC50, inhibition of TSLP-induced pSTAT5 (AlphaLISA, MFI) in BaF3 cells expressing hTSLPR/hIL-7Rα; stimulus hTSLP QB11631", "setting": "[11]", "result": 0.78, "unit": "nM"},
      {"measurement": "IC50, inhibition of TSLP-induced CCL17 release from primary human monocytes (ELISA, pg/mL); stimulus hTSLP QB11631", "setting": "[12]", "result": 0.0013, "unit": "nM"},
      {"measurement": "IC50, inhibition of TSLP-induced proliferation of BaF3 cells expressing hTSLPR/hIL-7Rα (CellTiter-Glo, RLU); stimulus hTSLP QB11630", "setting": "[13]", "result": 0.0058, "unit": "nM"},
      {"measurement": "Kd", "setting": "[14]", "result": 0.075, "unit": "nM"},
      {"measurement": "Kd", "setting": "[15]", "result": 0.831, "unit": "nM"},
      {"measurement": "Kd", "setting": "[16]", "result": 0.0295, "unit": "nM"},
      {"measurement": "Kd", "setting": "[17]", "result": 0.0263, "unit": "nM"},
      {"measurement": "Kd", "setting": "[18]", "result": 0.0187, "unit": "nM"},
      {"measurement": "IC50, inhibition of TSLP-induced proliferation of BaF3 cells expressing hTSLPR/hIL-7Rα (CellTiter-Glo, RLU); stimulus native hTSLP from healthy donor 1", "setting": "[19]", "result": 0.0014, "unit": "nM"},
      {"measurement": "IC50, inhibition of TSLP-induced pSTAT5 (AlphaLISA, MFI) in BaF3 cells expressing hTSLPR/hIL-7Rα; stimulus cyTSLP QB11632", "setting": "[20]", "result": 0.28, "unit": "nM"},
      {"measurement": "IC50, inhibition of TSLP-induced pSTAT5 (AlphaLISA, MFI) in cultured primary human ILC2 cells; stimulus cyTSLP QB11632", "setting": "[21]", "result": 0.46, "unit": "nM"},
      {"measurement": "IC50, inhibition of TSLP-induced CCL17 release from primary human monocytes (ELISA, pg/mL); stimulus cyTSLP QB11632", "setting": "[22]", "result": 0.0027, "unit": "nM"},
      {"measurement": "IC50, inhibition of TSLP-induced pSTAT5 (AlphaLISA, MFI) in cultured primary human ILC2 cells; stimulus hTSLP QB11630", "setting": "[23]", "result": 1.5, "unit": "nM"},
      {"measurement": "IC50, inhibition of TSLP-induced proliferation of BaF3 cells expressing hTSLPR/hIL-7Rα (CellTiter-Glo, RLU); stimulus cyTSLP QB11633", "setting": "[24]", "result": 0.0022, "unit": "nM"},
      {"measurement": "IC50, inhibition of TSLP-induced CCL17 release from primary human monocytes (ELISA, pg/mL); stimulus hTSLP QB11630", "setting": "[25]", "result": 0.0045, "unit": "nM"},
      {"measurement": "IC50, inhibition of TSLP-induced proliferation of BaF3 cells expressing hTSLPR/hIL-7Rα (CellTiter-Glo, RLU); stimulus hTSLP QB11631", "setting": "[26]", "result": 0.012, "unit": "nM"}
    ]}
  ]
}
